According to patent publication US20250361274A1, “PEPTIDE AND PEPTIDE-CONTAINING AGENT” (PEPTIDREAM INC., priority 2022, published 2025):
Numbered stars: 1 amine (or outer) side, 2 acyl side, 3 side chain; on linkers, the order of the positions; unused ones are H or OH. Square brackets hold non-standard residues; d marks the D form. Ends that are not written are not given here. KCOpipzaa = N6-(4-(carboxymethyl)piperazine-1-carbonyl)-L-lysine, O=C(NCCCC[C@H](N[*:1])C(=O)[*:2])N1CCN(CC(=O)[*:3])CC1; Bph3C = (S)-2-amino-3-(3'-chloro-[1,1'-biphenyl]-4-yl)propanoic acid, O=C([C@H](Cc1ccc(-c2cccc(Cl)c2)cc1)N[*:1])[*:2]; Cha4tH = (S)-2-amino-3-((1r,4S)-4-hydroxycyclohexyl)propanoic acid, O=C([C@H](C[C@H]1CC[C@H](O[*:3])CC1)N[*:1])[*:2]; Phe(4-(4-pyridyl)) = N[C@@H](Cc1ccc(-c2ccncc2)cc1)C(=O)O; 3Pal(6-Ph) = N[C@@H](Cc1ccc(-c2ccccc2)nc1)C(=O)O; Phe(4-COOH) = N[C@@H](Cc1ccc(C(=O)O)cc1)C(=O)O; Bip = N[C@@H](Cc1ccc(-c2ccccc2)cc1)C(=O)O; Ala(4-THP) = N[C@@H](CC1CCOCC1)C(=O)O; Hyp = O=C(O)[C@@H]1C[C@@H](O)CN1; NMeF = CN[C@@H](Cc1ccccc1)C(=O)O; 3Pal = N[C@@H](Cc1cccnc1)C(=O)O; 4Pal = N[C@@H](Cc1ccncc1)C(=O)O; Cha = N[C@@H](CC1CCCCC1)C(=O)O; Cit = NC(=O)NCCC[C@H](N)C(=O)O

Key:
BMP4 = molecular target: T1, BMP4 (Homo sapiens, UniProt P12644); experiment: BMP4 signal transduction inhibitory activity: SMAD1 phosphorylation by BMP4 stimulus, AlphaLISA SureFire, A549 cells; assay type: cell-based; details: for aLISA BMP4: inhibition of SMAD1 phosphorylation by BMP4 stimulus, A549 cells
T1 sequence (P12644 293-408): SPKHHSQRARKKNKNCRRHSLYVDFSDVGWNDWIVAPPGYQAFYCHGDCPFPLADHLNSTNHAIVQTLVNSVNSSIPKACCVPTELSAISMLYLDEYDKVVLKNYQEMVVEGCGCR
Protocol: In the present Example, a BMP4 signal transduction inhibitory activity of each peptide consisting of an amino acid sequence set forth in any of SEQ ID NOs: 5 to 240 and 243 to 421 synthesized in Example 10 was verified by phosphorylation of SMAD1 caused by BMP4 stimulus. A549 cells were cultured in MEM (Thermo Fisher Scientific) containing 10% FBS (Thermo Fisher Scientific), 1×Non-essential amino acids (Thermo Fisher Scientific), and 50 μg/mL Gentamicin. After TrypLE (Gibco) was used to peel the cells, seeding was performed in a 96-well plate for adhesion cells so that the number of cells would be 20,000 per well, followed by culturing for 48 hours. After the cells were cultured as described above, the culture medium was replaced with a peptide solution or recombinant Human Noggin Protein (R&D) solution as a positive control diluted to various concentrations in a nutrition-starved culture medium containing 0.1% BSA (Sigma) instead of FBS Thirty minutes after culturing, […], to stimulate it for 60 minutes. The culture medium was removed and the cells were lysed with Lysis Buffer provided with AlphaLISA (registered trademark) SureFire (registered trademark) Ultra SMAD1 (p-[…]/465) Assay kit (PerkinElmer). According to the protocol of the kit, a signal was detected using SpectraMax (registered trademark) Paradigm (registered trademark) multimode microplate reader (Molecular Devices). The obtained signal was analysed using GraphPad Prism (GraphPad Software). The % inhibition was calculated by considering non-stimulation as 100% inhibition and BMP stimulation only as 0% inhibition. Regarding SEQ ID NOs: 5 to 187, the concentrations of the peptides synthesized in the same manner as in Example 2 (shown as 2 in the row of Synthesis) were 0.02 nM, 0.2 nM, and 2 nM, and the concentrations of the peptides synthesized in the same manner as in Example 1 (shown as 1 in the row of Synthesis) were 0.2 nM, 2 nM, and 20 nM. The evaluation results were based on the results of evaluation using the peptides synthesized in the same manner as in Example 2. […] Regarding SEQ ID NOs: 243 to 321, the test was performed at the concentrations described in Table 6. […] Regarding SEQ ID NOs: 322 to 421, the test was performed at the concentrations described in Table 7. […] The evaluation tests of the signal transduction inhibitory activities of SEQ ID NOs: 87, 177, and 181 are as follows. Specifically, the inhibitory activity of BMP4 was evaluated in the same manner as in Example 11 that used A549 cells. Eight concentrations of the peptides were used at a common ratio of 1/3 starting from 2 nM. The inhibitory activity of BMP7 was evaluated in the same manner as in Example 12. Eight concentrations of the peptides were used at a common ratio of 1/3 starting from 100 nM. Note that recombinant Human Noggin Protein (R&D) as a positive control was used at the same concentration as that of the peptide. […] The inhibitory activity of BMP7 was evaluated using eight concentrations of the peptides at a common ratio of 1/3 starting from 1,000 nM in the same manner as in Example 12.

BMP7 = molecular target: T2, BMP7 (Homo sapiens, UniProt P18075); experiment: BMP7 signal transduction inhibitory activity: SMAD1 phosphorylation by BMP7 stimulus, A549 cells; assay type: cell-based; details: for aLISA BMP7: inhibition of SMAD1 phosphorylation by BMP7 stimulus, A549 cells
T2 sequence (P18075 293-431): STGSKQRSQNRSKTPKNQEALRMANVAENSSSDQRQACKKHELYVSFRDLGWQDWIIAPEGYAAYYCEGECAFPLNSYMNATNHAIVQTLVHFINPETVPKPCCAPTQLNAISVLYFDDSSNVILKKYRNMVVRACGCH
Protocol: In the present Example, BMP7 signal transduction inhibitory activity of each peptide consisting of an amino acid sequence set forth in any of SEQ ID NOs: 5 to 240 and 243 to 421 synthesized in Example 10 was verified by phosphorylation of SMAD1 caused by BMP7 stimulus. The evaluation was performed using 10 nM of BMP7 instead of BMP 4. Regarding SEQ ID NOs: 5 to 240, the concentrations of the peptides synthesized in the same manner as in Example 2 (shown as 2 in the row of Synthesis) were 1 nM, 10 nM, and 100 nM, and the concentrations of the peptides synthesized in the same manner as in Example 1 (shown as 1 in the row of Synthesis) were 10 nM, 100 nM, and 1,000 nM, similarly with Example 11. […] Regarding SEQ ID NOs: 243 to 273 and SEQ ID NOs: 299 to 321, the test was performed at the concentrations (10, 100, 1,000 nM) described in Table 6. […] Regarding SEQ ID NOs: 274 to 298, the test was performed at the concentrations (100, 300, 1,000 nM) described in Table 6. […] Regarding SEQ ID NOs: 322 to 370 and SEQ ID NOs: 393 to 421, the test was performed at the concentrations (1, 10, 100 nM). […] Regarding SEQ ID NOs: 371 to 391, the test was performed at the concentrations (10, 30, 90 nM). […] The evaluation tests of the signal transduction inhibitory activities of SEQ ID NOs: 87, 177, and 181 are as follows. Specifically, the inhibitory activity of BMP4 was evaluated in the same manner as in Example 11 that used A549 cells. Eight concentrations of the peptides were used at a common ratio of 1/3 starting from 2 nM. The inhibitory activity of BMP7 was evaluated in the same manner as in Example 12. Eight concentrations of the peptides were used at a common ratio of 1/3 starting from 100 nM. Note that recombinant Human Noggin Protein (R&D) as a positive control was used at the same concentration as that of the peptide. […] The inhibitory activity of BMP7 was evaluated using eight concentrations of the peptides at a common ratio of 1/3 starting from 1,000 nM in the same manner as in Example 12.

[1] = SMAD1 phosphorylation, BMP4 0.2 nM, peptide conc. in assay 0.2, 2, 20 nM
[2] = SMAD1 phosphorylation, BMP7 10 nM, peptide conc. in assay 1, 10, 100 nM
[3] = AlphaLISA, class by peptide concentration zone

243 (ERVYVDR[3Pal(6-Ph)]SYV[Bip]Y[Phe(4-COOH)][Phe(4-COOH)]SCG-NH2) [compound 243]
aLIZA BMP4 (0.2 nM) % Inh (BMP4; SMAD1 phosphorylation by BMP4 stimulus, peptide conc. in assay 0.02, 0.2, 2 nM, class symbols): C (showed less than 30% of inhibitory activity in 0.2 nM-addition zone and showed 30% or more of inhibitory activity in 2 nM-addition zone)
aLIZA BMP7 (10 nM) % Inh (BMP7; SMAD1 phosphorylation by BMP7 stimulus, peptide conc. in assay 10, 100, 1000 nM, class symbols): E (showed less than 30% of inhibitory activity in 100 nM-addition zone and showed 30% or more of inhibitory activity in 1,000 nM-addition zone)

357 (FG[NMeF]G[Bip]GDD[Cha]A[NMeF]L[Phe(4-COOH)]CG-NH2; not fully specified (N-terminus, bridges)) [compound 357]
aLISA BMP4 (0.2 nM) % inh (BMP4; [1]): ND (the inhibitory activity was less than 30% at the maximum concentration evaluated)
aLISA BMP7 (10 nM) % inh (BMP7; [2]): D (showed less than 30% of inhibitory activity in 10 nM-addition zone and showed 30% or more of inhibitory activity in 100 nM-addition zone)

42 (Ac-AKVYVDK(Ac)[Bip]PYP[Bip]Y[Phe(4-COOH)][Phe(4-COOH)]SCG-NH2; thioether (positions not given here); not fully specified (bridges)) [compound 42]
aLISA BMP4 (BMP4; [3]): A (showed an inhibitory activity of 50% or more in a zone to which the peptide was added to in an amount of 0.2 nM)
aLISA BMP7 (BMP7; [3]): ND (the inhibitory activity was less than 30% at the maximum concentration evaluated)

287 (ERV[Phe(4-COOH)][Ala(4-THP)][KCOpipzaa]R[3Pal(6-Ph)][KCOpipzaa]Y[Hyp][Bip][4Pal][Phe(4-COOH)][Phe(4-COOH)]SCG-NH2; not fully specified (N-terminus, bridges); also: cyclic peptide, ring not given here) [compound 287]
aLIZA BMP4 (0.2 nM) % inh (BMP4; BMP4 0.2 nM stimulus, peptide conc. in assay 0.02, 0.2, 2 nM, class symbols): C (showed less than 30% of inhibitory activity in 0.2 nM-addition zone and showed 30% or more of inhibitory activity in 2 nM-addition zone)
aLIZA BMP7 (10 nM) % inh (BMP7; BMP7 10 nM stimulus, peptide conc. in assay 100, 300, 1000 nM, class symbols): H (showed less than 30% of inhibitory activity in 300 nM-addition zone and showed 30% or more of inhibitory activity in 1,000 nM-addition zone)

116 (EKVYVKRFPYPFYFFSCA; not fully specified; MOD_RES 2 K represents N6-(4-(Carboxymethyl) piperazine-1-carbonyl)-L-lysine(KCOpipzaa); MOD_RES 6 K represents N6-(4-(Carboxymethyl) piperazine-1-carbonyl)-L-lysine(KCOpipzaa); MOD_RES 8 F represents (S)-3-(1,1'-Biphenyl-4-yl)-2-aminopropanoic acid(Bph); MOD_RES 12 F represents (S)-3-(1,1'-Biphenyl-4-yl)-2-aminopropanoic acid(Bph); MOD_RES 14 F represents (S)-4-(2-amino-2-carboxyethyl)benzoic aci) [compound 116]
aLISA BMP4 (BMP4; peptides of Synthesis 2, classes A-C, ND): A (showed an inhibitory activity of 50% or more in a zone to which the peptide was added to in an amount of 0.2 nM)
aLISA BMP7 (BMP7; peptides of Synthesis 2, classes A-D, ND): C (showed less than 50% of inhibitory activity in 10 nM-addition zone and showed 50% or more of inhibitory activity in 100 nM-addition zone)

58 (Ac-ARVYVD[Cit][Bip]PYP[Bip]Y[Phe(4-COOH)][Phe(4-COOH)]SCG-NH2; thioether (positions not given here); not fully specified (bridges)) [compound 58]
aLISA BMP4 (BMP4; [3]): A (showed an inhibitory activity of 50% or more in a zone to which the peptide was added to in an amount of 0.2 nM)
aLISA BMP7 (BMP7; [3]): C (showed less than 50% of inhibitory activity in 10 nM-addition zone and showed 50% or more of inhibitory activity in 100 nM-addition zone)

325 (FG[NMeF]G[Phe(4-(4-pyridyl))]GDD[Cha]A[NMeF]LHCG-NH2; not fully specified) [compound 325]
aLISA BMP4 (0.2 nM) % inh (BMP4; [1]): ND (the inhibitory activity was less than 30% at the maximum concentration evaluated)
aLISA BMP7 (10 nM) % inh (BMP7; [2]): D (showed less than 30% of inhibitory activity in 10 nM-addition zone and showed 30% or more of inhibitory activity in 100 nM-addition zone)

376 (FG[NMeF]G[3Pal]GDD[Cha]A[NMeF]LHCG-NH2; not fully specified) [compound 376]
aLISA BMP4 (0.2 nM) % inh (BMP4; BMP4 0.2 nM stimulus, peptide conc. in assay 2, 20, 200 nM): ND (the inhibitory activity was less than 30% at the maximum concentration evaluated)
aLISA BMP7 (10 nM) % inh (BMP7; BMP7 10 nM stimulus, peptide conc. in assay 10, 30, 90 nM): G (showed less than 30% of inhibitory activity in 30 nM-addition zone and showed 30% or more of inhibitory activity in 90 nM-addition zone)

321 (ERV[Phe(4-COOH)][Cha4tH][KCOpipzaa]R[3Pal(6-Ph)][KCOpipzaa]Y[Hyp][Bph3C][4Pal][Phe(4-COOH)][Phe(4-COOH)]SCG-NH2) [compound 321]
aLIZA BMP4 (0.2 nM) % inh (BMP4; BMP4 0.2 nM, peptide 0.02, 0.2, 2 nM, Table 6): B (showed less than 30% of inhibitory activity in 0.02 nM-addition zone and showed 30% or more of inhibitory activity in 0.2 nM-addition zone)
aLIZA BMP7 (10 nM) % inh (BMP7; BMP7 10 nM, peptide 10, 100, 1000 nM, Table 6): E (showed less than 30% of inhibitory activity in 100 nM-addition zone and showed 30% or more of inhibitory activity in 1,000 nM-addition zone)
